Laboratory results as given in article PMC2908990 (Molecular cell, 2009).

B1: CH1 domain of the murine IgG1 heavy chain, reduced (domain or fragment)
chain: not shown
modifications: internal disulfide bridge not formed (reduced)
B2: CH1 domain of the murine IgG1 heavy chain, oxidized (internal disulfide bridge formed) (domain or fragment)
chain: not shown
modifications: internal disulfide bridge formed (oxidized; Cys25-Cys80)

Target: BiP, murine sequence (hamster BiP mutated to the murine sequence) (murine, UniProt P20029 20-655)
Experiment: SEC

Sequence of BiP, murine sequence (hamster BiP mutated to the murine sequence) (P20029 20-655, change not shown): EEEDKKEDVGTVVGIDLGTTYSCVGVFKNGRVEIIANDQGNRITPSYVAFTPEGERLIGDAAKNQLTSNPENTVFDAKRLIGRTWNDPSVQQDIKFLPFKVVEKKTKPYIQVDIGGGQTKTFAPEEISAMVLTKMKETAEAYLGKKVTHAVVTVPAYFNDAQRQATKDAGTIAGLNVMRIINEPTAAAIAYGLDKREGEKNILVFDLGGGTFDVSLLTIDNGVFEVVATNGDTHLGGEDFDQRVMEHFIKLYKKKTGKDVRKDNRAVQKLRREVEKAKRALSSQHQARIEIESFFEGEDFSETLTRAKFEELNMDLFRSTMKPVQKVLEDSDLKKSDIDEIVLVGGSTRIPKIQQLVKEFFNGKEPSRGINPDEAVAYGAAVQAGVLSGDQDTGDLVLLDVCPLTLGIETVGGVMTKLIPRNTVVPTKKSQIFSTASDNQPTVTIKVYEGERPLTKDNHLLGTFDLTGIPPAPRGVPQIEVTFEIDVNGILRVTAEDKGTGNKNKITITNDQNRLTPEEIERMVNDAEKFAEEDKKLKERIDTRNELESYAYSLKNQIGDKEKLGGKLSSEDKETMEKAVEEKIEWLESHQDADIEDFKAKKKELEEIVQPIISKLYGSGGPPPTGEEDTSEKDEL

| Binder | Kd | koff | kon |
| --- | --- | --- | --- |
| B1 | 4.2 ± 0.4 µM | 7.83e-05 s⁻¹ | 6.83 M⁻¹ s⁻¹ |
| B2 | 12.6 ± 0.7 µM | 8.33e-05 s⁻¹ | 4.33 M⁻¹ s⁻¹ |
